Laboratory results: patent US20210138049A1
Several values for one entry are separate records, joined by “and”; a condition that tells them apart may be missing. Identical values can stand only once.

Assays:
β-Syn (103-134) peptide = assay: peptide ELISA, serum, 0 w
[1] = molecular target: α-Synuclein 91-140 peptide (human); assay: peptide ELISA, serum, 0 w

ELISA Log10 Titer (β-Syn (103-134) peptide): 0.1 Log10 titer
ELISA Log10 Titer [1]: 0.1 Log10 titer and 0.2 Log10 titer and 0.3 Log10 titer
Substance: preimmune guinea pig serum / antibodies purified from preimmune serum of naïve guinea pigs (antibody)
